The values below come from patent US20250215105A1 (published 2025).

What is called Kd is a measure of binding affinity in units of concentration.

B1: T86_sc (antibody, V domains shown)
VH: QIQLVQSGPELKKPGETVKISCEASGYTFINYGMNWVKQAPGKGLKWMGWINTYTGEPTYADDFKGRFAFSLETSANTAYLQINNLKNEDTATYFCARKGYYGYPNYYAMDYWGQGTSVTVSS
VL: DIVMTQSQKFMSTSVGDRVSITCKASQNVGTAVAWYQQKPGQSPKLLIYSASNRYTGVPDRFTGSGSGTDFTLTISNMQSEDLADYFCQQYSSYPITFGTGTKLEIK
B2: HuP4_IB_sc (Fc fusion)
VH: QVQLLESGPELVKPSATLSITCTVSGFSLTNYGVHWIRQAPGKGLEWLGVILRRGSTDYNAAFMSRFTISKDNSKNQVYFKLRSVTAEDTAVYYCAKTAVVAGDYFDYWGQGTMVTVSS
VL: DIQMTQSHSTLSLSVGDRVTITCKASQNVGTNVAWYQQKPGQPPKALIYSASYRYSGVPSRFSGSGSGTDFTLTISSVQAEDVAVYYCQQYNSYPLTFGPGTKLEIK
B3: Tre_291_sc (antibody, V domains shown)
VH: QVQLKQSGPGLVQPSQSLSITCTVSGFSLTSYGVHWVRQSPGKGLEWLGVIWRRGSTDYNAAFMSRLSITKDTSKSQVFFKMNSLQTDDTAIYYCAGVRGDAMDYWGQGTSVTVSS
VL: DIVMTQSHKSMSTSVGDRVSVTCKASQNVGTNVAWYQQKPGQSPKALIYSASYRYSGVPDRFTGSGSGTDFTLTISNVQSEDLAEYFCQQYNSYPLTFGGGTKLEIK
B4: HuP4_51_sc (antibody, V domains shown)
VH: QVQLVESGGGVVQPGGSLRLSCVVSGFSLTNYGVHWVRQAPGKGLEWLGVILRRGSTDYNAAFMSRLAISKDNSKNTVYLELNSLRLDDTAVYYCAKTAVVAGDYFDYWGQGTTVTVSS
VL: DIVMTQSQKFMSTSVGDRVSITCKASQNVGTNVAWYQQKPGQSPKLLIYSASYRYSGVPDRFTGSGSGTDFTLTISNMQSEDLADYFCQQYNSYPLTFGGGTKLEIK
B5: HuP4_41_sc (antibody, V domains shown)
VH: QVQLVESGGGVVQPGGSLRLSCVVSGFTLTNYGVHWVRQAPGKGLEWLAVILRRGSTDYNAAFMSRLAISKDNSKNTVYLELNSLRLDDTAVYYCAKTAVVAGDYFDYWGQGTTVTVSS
VL: DIVMTQSQKFMSTSVGDRVSITCKASQNVGTNVAWYQQKPGQSPKLLIYSASYRYSGVPDRFTGSGSGTDFTLTISNMQSEDLADYFCQQYNSYPLTFGGGTKLEIK
B6: mAnE67_sc (antibody, V domains shown)
VH: EVQLVESGGGLVKPGGSRKLSCAASGFTFSDYGMHWVRQAPEKGLEWVAYISSGSSIIYYADTVKGRFTISRDNAKNTLFLQMTGLRSEDTAMYYCARKDYPYAMDYWGQGTSLAVSS
VL: DIVMTQSHKSMSTSVGDRVSVTCKASQNVGTNVAWYQQKPGQSPKALIYSASYRYSGVPDRFTGSGSGTDFTLTISNVQSEDLAEYFCQQYNSYPLTFGGGTKLEIK
B7: HuP4_11_sc (antibody, V domains shown)
VH: EVQLVESGGALVQPGRSLRLSCAVSGFTLSNYGVHWVRQAPGKGLEWVAVILRRGSTDYNAAFMSRFTISKDNSKNTVYLQMNSLRADDTAVYYCAKTAVVAGDYFDYWGQGTTVTVSS
VL: DIVMTQSQKFMSTSVGDRVSITCKASQNVGTNVAWYQQKPGQSPKLLIYSASYRYSGVPDRFTGSGSGTDFTLTISNMQSEDLADYFCQQYNSYPLTFGGGTKLEIK
B8: P4_sc (Fc fusion)
VH: QVQLKESGPSLVQPSQSLSITCTVSGFSLTNYGVHWVRQSPGKGLEWLGVILRRGSTDYNAAFMSRLSITKDNSKSQVFFKMNSLQADDTAIYYCAKTAVVAGDYFDYWGQGTTLTVSS
VL: DIVMTQSHKFMSTSVGDRVSVTCKASQNVGTNVAWYQQKPGQSPKALIYSASYRYSGVPDRFTGSGSGTDFTLTISNVQSEDLAEYFCQQYNSYPLTFGTGTKLEIK
B9: I67_sc (antibody, V domains shown)
VH: DVQLQESGPSLVQPSQSLSINCTVSGFSLSSYGVHWVRQSPGKGLEWLGVIWRRGSTDYNAAFMSRLSITKDNSKSQVFFKMNRLQADDTATYYCAKGISTATSWFAYWGQGTLVTVSA
VL: DIVMTQSHKFMSTSVGDRVSVTCKASQNVGTNVAWYQQKPGQSPKALIYSASYRYSGVPDRFTGSGSGTDFTLTISNVQSEDLAEYFCQQYNSYPLTFGAGTKLELK
B10: I-394h4 (antibody, V domains shown)
VH: EVQLQQSGPELVKPGASVKMSCKASGYTFTDYNMHWVKQSHGRTLEWIGYIVPLNGGSTFNQKFKGRATLTVNTSSRTAYMELRSLTSEDSAAYYCARGGTRFAYWGQGTLVTVSA
VL: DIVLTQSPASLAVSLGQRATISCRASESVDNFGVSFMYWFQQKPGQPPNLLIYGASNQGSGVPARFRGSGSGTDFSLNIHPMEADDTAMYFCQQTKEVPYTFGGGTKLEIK
B11: 6-3m1 (antibody, V domains shown)
VH: QVQLKQSGAELVKPGASVKLSCTASGFSIKDTYVHWVKQRPEQGLEWIGKIDPANVNTKFDPKFQGKATITADTSSNTAYLQLSSLTSEDTAVYYCALYGYDDDAYYFDYWGQGTTLTVSS
VL: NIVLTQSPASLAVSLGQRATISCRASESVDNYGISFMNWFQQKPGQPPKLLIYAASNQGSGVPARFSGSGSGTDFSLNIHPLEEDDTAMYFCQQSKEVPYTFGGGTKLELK
B12: 23-7m1 (antibody, V domains shown)
VH: EVQLQQSGPELEKPGASVKISCKVSGYSFTDYNLNWVKQYNGKNLEWIGNIDPYSGGTRYNQKFKGKATLTIDQSSSTAYMHLKSLTSEDSAVYYCGLYGYDDDANYFDDWGQGTTLTVSS
VL: EIVLTQSPAIMSPSPGEKVTIACSASSSVSYMHWFQQKPGTSPKLWIYATSNLASGVPARFSGSGSGTSYSLTISRMEAEDVATYYCQQRSSYPLTFGAGTKLELK
B13: T-31414h4 (antibody, V domains shown)
VH: QVQLVQSGAEVKKPGASVKVSCKASGYTFKSYEMHWVRQAPGQGLEWMGRINPSVGSTWYAQKFQGRVIMIRDTSTSTVYMELSSLRSEDTAVYYCARGKREGGTEYLRNWGQGTLVTVSS
VL: EIVLIQSPGILSLSPGERATLSCRASQSVSSSYLAWYQQKPGQAPRLLIYGASSRATGIPDRFSGSGSGTDFTLTISRLEPEDFAVYYCQQYHSYITFGGGTKVEIK

For the first assay, the target named is T1, human CD39 recombinant antigen (UniProt P49961 38-478).
T1 chain: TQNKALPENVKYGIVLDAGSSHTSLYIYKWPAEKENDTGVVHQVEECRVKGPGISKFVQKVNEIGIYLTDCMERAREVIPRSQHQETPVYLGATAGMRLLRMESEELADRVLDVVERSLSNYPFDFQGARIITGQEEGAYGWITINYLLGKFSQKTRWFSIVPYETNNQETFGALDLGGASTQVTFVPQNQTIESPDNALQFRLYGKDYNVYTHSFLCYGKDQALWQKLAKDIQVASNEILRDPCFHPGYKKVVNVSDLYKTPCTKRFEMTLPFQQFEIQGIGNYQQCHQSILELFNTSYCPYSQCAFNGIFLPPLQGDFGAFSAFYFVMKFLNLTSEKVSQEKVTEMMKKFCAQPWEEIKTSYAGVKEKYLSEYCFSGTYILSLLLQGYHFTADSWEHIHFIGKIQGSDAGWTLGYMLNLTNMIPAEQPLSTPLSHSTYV
The assay is described as follows: SPR. For orientation: Surface plasmon resonance follows binding to a sensor surface in real time, without labels.
With B1, the Kd was 4280 pM. The same measure, in the same setting: to B2 belongs 396 pM; to B3, 2220 pM; to B4, 369 pM. As for B5, the Kd was 106 pM. Same read-out and setting: under B6 stands 4750 pM; under B7, 377 pM.

For the molecule B8, the Kd amounted to 307 pM. B9: the Kd turned out to be 1650 pM.

The next assay addresses T1, human CD39 recombinant antigen. The assay is described as follows: SPR. This is another data set of the same source.
On to B10, for which the Kd stood at 956 pM.

B11: the Kd amounted to 399 pM. Still for that read-out and setting: to B12 belongs 573 pM; to B13, 9830 pM.
